Experimental data as given in patent publication US20250313621A1 (NXERA PHARMA UK, published 2025).

T1: Wildtype human PAR 1 (human, UniProt P25116 42-425)
T1 construct: BacMam-infected HEK293f cells in the IP-One assay
T1 sequence: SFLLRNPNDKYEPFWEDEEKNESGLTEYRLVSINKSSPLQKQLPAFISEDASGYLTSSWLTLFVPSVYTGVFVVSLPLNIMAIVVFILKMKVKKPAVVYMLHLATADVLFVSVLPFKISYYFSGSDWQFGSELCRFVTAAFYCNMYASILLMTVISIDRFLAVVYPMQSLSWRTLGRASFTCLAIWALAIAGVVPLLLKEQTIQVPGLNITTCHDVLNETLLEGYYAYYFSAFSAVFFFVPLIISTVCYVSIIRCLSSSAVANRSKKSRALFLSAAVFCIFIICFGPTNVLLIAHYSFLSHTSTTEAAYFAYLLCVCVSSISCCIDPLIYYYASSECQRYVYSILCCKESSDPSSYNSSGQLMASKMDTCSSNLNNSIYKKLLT

T2: V5His-huPAR2 on Flp-In CHO cells (human, UniProt P55085 37-397)
T2 sequence: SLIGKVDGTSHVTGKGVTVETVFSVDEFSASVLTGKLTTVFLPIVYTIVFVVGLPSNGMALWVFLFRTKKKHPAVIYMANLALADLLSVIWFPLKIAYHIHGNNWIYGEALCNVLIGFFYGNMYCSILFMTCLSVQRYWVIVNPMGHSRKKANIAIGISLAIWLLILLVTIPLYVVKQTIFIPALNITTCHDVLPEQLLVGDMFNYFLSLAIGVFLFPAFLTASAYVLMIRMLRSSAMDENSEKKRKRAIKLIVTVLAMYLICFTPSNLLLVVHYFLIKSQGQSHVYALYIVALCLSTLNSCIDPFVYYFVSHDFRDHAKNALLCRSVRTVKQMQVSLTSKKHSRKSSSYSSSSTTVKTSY

T3: Wildtype human PAR2 expressed on cells (human, UniProt P55085 37-397)
T3 construct: also called huPAR2; WT FL-huPAR2
T3 sequence: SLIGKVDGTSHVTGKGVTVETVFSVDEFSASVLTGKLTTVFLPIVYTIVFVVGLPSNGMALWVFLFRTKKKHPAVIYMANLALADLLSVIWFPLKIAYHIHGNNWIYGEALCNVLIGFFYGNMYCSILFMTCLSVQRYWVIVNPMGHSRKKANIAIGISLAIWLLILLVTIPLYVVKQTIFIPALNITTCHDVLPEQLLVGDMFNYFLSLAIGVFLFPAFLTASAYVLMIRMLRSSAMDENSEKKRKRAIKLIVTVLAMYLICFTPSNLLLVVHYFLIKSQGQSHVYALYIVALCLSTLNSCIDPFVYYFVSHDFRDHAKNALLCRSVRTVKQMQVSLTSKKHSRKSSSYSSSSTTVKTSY

T4: PAR2-3: P157: 1-377, glycosylated, pBacMamHisStrepII, full length (human, UniProt P55085 26-377)
T4 construct: detergent-solubilised analyte in SPR, or on infected cells in flow cytometry; also called FL-N PAR2 StaR; FL-N StaR; not shown: C-terminal StrepII and deca-histidine tags
T4 sequence: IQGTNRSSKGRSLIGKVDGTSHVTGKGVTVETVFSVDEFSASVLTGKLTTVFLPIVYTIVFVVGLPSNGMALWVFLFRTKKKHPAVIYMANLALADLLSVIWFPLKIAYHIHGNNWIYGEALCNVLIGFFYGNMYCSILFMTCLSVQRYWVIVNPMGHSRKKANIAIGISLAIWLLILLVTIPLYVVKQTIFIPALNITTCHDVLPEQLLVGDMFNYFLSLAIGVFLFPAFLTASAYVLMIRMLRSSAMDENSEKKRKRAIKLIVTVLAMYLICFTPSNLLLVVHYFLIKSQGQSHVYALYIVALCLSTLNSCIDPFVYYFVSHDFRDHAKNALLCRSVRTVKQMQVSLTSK

T5: Mouse PAR2 on Flp-In CHO cells (mouse, UniProt P55086 39-399)
T5 construct: whole, on cells
T5 sequence (looked up): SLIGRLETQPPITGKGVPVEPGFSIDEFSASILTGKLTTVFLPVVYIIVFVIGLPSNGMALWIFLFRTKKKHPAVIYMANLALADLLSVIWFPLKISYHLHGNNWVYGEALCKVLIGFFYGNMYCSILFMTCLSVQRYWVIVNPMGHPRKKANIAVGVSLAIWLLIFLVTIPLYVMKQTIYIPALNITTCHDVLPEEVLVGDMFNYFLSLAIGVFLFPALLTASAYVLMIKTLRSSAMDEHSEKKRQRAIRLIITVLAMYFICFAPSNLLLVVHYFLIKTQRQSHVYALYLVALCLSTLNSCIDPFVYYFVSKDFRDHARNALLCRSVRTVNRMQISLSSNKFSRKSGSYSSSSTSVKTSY


Tests used:
Wildtype human PAR 1 = target: T1, Wildtype human PAR 1; assay: IntelliCyt flow cytometry, titration of IgG1f_AEASS, S/BG
Experimental: (§1) To evaluate species cross-reactivity and/or unwanted binding to counter-targets simultaneously, screening in 384-well plate format was performed using the HTFC/iQue screening platform from IntelliCyt. The HTFC/iQue Screening System was also used for evaluation of binding to multiple target cell lines or evaluation of unwanted/non-specific binding in parallel, in other words multiplexing. Different cell populations could be distinguished by pre-labelling with distinct amounts of fluorescent dyes, such as Calcein or Cell-Tracker Green, establishing a unique signature of fluorescence intensity for each cell population, thereby producing a fluorescence coding system. The color-coded cell lines were then physically combined and mixed together with antibodies to be tested. Individual cell-lines could be identified via the fluorescence of the respective cell-line that had been pre-labelled. Crude bacterial cell lysates were combined with cells and incubated for 1 hour at room temperature in the dark, shaking gently. Fluorescence measurement was performed with the IntelliCyt HTFC/iQue device. In between incubation steps, no washing was required. Raw data were evaluated with the help of the ‘ForeCyt’ software. After data acquisition, the cell lines from each sample could be identified according to their fluorescence signature and individually evaluated for antibody binding. […]

[1] = target: T2, V5His-huPAR2 on Flp-In CHO cells; assay: IntelliCyt flow cytometry, titration of IgG1f_AEASS on Flp-In CHO_V5His_huPAR2 cells, S/BG
Experimental: as §1

[2] = target: T3, Wildtype human PAR2 expressed on cells; assay: IntelliCyt flow cytometry, titration of IgG1f_AEASS on HEK Flp-In TRex 293_huPAR2 expression-induced cells, S/BG
Experimental: as §1

[3] = target: T3, Wildtype human PAR2 expressed on cells; assay: cell-based or functional assay
[4] = target: T3, Wildtype human PAR2 expressed on cells; assay: cell-based or functional assay; remark: listed apart in the source
Rhesus PAR2 on cells = Rhesus PAR2 on cells (rhesus (Macaca mulatta)); assay: cell-based or functional assay
[5] = target: Cynomolgus PAR2 on BacMam-infected HEK293 cells (cynomolgus); assay: cell-based or functional assay
[6] = target: T4, PAR2-3: P157: 1-377, glycosylated, …; assay: SPR Biacore; IgG captured on anti-human IgG, 100 nM PAR2 analyte; 1:1 model
Experimental: The antibodies were captured on anti-human IgG chip surface followed by injection of 100 nM PAR2. The data were fitted to 1:1 interaction model except for clone ‘Y021160’ in which case heterogeneous ligand model was used and component with slow dissociation was used for comparison.
(§2) For three purified IgG1f_AEASS clones Y021171, Y022054 and Y022063 affinities to human PAR2-3 variant (P157: 1-377, glycosylated, pBacMamHisStrepII, full length) were determined by SPR immobilizing the IgG and probing with detergent (LMNG/CHS) solubilized FL-N PAR2 StaR. Affinities were 22 nM and 20 nM for Y022063 and Y021171, respectively.

[7] = target: T5, Mouse PAR2 on Flp-In CHO cells; assay: FACS titration on CHO mouse Par2 cells, RLU [continued) C]
Source text: Binding events to cell surface expressed antigen were identified by flow cytometry using either crude E. coli lysates from the panning output or purified antibodies. High throughput primary screens of panning outputs from differential whole cell pannings (DWCP) were mainly performed on human wild type PAR2-expressing Flp-In CHO cells (Flp-In CHO_huPAR2), GNTI BacMam wild type PAR2 cells and GNTI BacMam truncated PAR2 StaR versus parental Flp-In CHO cells (PAR2 negative) or non-infected HEK293GNTI-cells. Candidates showing an elevated background binding to parental Flp-In CHO cells were ascribed as either non-specific or off-target binders. All steps were performed in FACS buffer including FCS and sodium azide to prevent potential receptor internalization. Cell suspensions were transferred into microtiter plates and antibody samples were added followed by subsequent incubation of plates at 4° C. Sample volume and cell-number were adjusted to the plate type used. Following incubation, cells were spun down and washed with FACS buffer. Fluorophore-conjugated secondary reagents were used for detection of bound antibodies. Plates were measured using the BD FACS Array or IntelliCyt HTFC/iQue System and data was analysed using FlowJo, ForeCyt or proprietary software tools (FIG. 3).

[8] = target: T4, PAR2-3: P157: 1-377, glycosylated, …; assay: SPR Biacore T200; IgG captured on anti-human IgG, 250 nM PAR2 analyte; 1:1 model
Experimental: (§3) The assay of PAR2 interaction with anti-PAR2 antibodies was carried out using a Biacore T200 instrument (GE Healthcare). Anti-human IgG antibody (Human Antibody Capture Kit, GE Healthcare) was immobilised by amine coupling on a sensor chip CM3 (GE Healthcare) to a surface density of 3500 to 4500 resonance units (RU). Immobilisation was carried out at 25° C. in HBS-EP+ buffer (GE Healthcare). The buffer was then changed to 50 mM HEPES, pH 7.5, 150 mM NaCl, 0.02% LMNG, 0.002% CHS. Each cycle of the PAR2-antibody interaction assay consisted of antibody capture (100 nM antibody injected for 2 min at a flow rate of 5 μL/min), PAR2 injection (blank or 250 nM, with contact and dissociation times of 2 and 3 minutes, respectively, at a flow rate of 20 μl/minute), and chip surface regeneration (30 seconds at 20 μl/minute) using the regeneration solution from Human Antibody Capture Kit (GE Healthcare). […] Measurements between each experimental data set were within the acceptable margins for this methodology.
The antibodies were captured on anti-human IgG chip surface followed by injection of 250 nM PAR2. The data were fitted to 1:1 interaction model.

[9] = target: T5, Mouse PAR2 on Flp-In CHO cells; assay: cell binding, flow cytometry/IntelliCyt
[10] = target: T4, PAR2-3: P157: 1-377, glycosylated, …; assay: SPR; IgG immobilised, detergent solubilised FL-N PAR2 StaR as analyte
Experimental: as §2, §3

Row | binding result (Wildtype human PAR 1) | EC50 (read off the curve) [1] [nM] | EC50 (read off the curve) [2] [nM] | % Max Inhibition AP, IP-One [3] [%] | IC50 (nM), SLIGKV agonist challenge, Human [4] [nM] | IC50 (nM), SLIGKV agonist challenge, Rhesus (Rhesus PAR2 on cells) [nM] | IC50 (nM), SLIGKV agonist challenge, Cyno [5] [nM] | Kd [6] [nM] | koff [6] [s⁻¹] | kon [6] [M⁻¹ s⁻¹] | binding result [7] | Kd [8] [nM] | koff [8] [s⁻¹] | kon [8] [M⁻¹ s⁻¹] | binding result [9] | fold higher affinity compared to Y022063 and Y021171 [10] [fold] | Binder
1 | no binding (tested: 200 nM) | ~4 | ~7 | 43 | 264 | > 2000 | > 2000 | 5.3 | 0.00016 | 30000 | no binding | – | – | – | – | – | Y022065 (antibody, human IgG1, lambda, V domains shown, also called clone Y022065; parental clone Y022065) VH: not shown VL: QSALTQPASVSGSPGQSITISCTGTSSDVGSYNLVSWYQQHPGKAPKLMIYEGSKRPSGVSNRFSGSKSGNTASLTISGLQAEDEADYYCSQYATFIAFAVFGGGTKLTVLG
2 | – | – | – | 17 | – | – | – | – | – | – | – | 2.5 | 0.00029 | 120000 | no binding | 10 | Y022054 (antibody, V domains shown) VH: EVQLLESGGGLVQPGGSLRLSCAASGFTFSSYAISWVRQAPGKGLEWVSAISGSGGSTYYAESVKGRFTISRDNSKNTLYLQMNSLRAEDTAVYYCARGYAEFGVWGQGTLVTVSS VL: DIQMTQSPSSLSASVGDRVTITCRASQSISSYLNWYQQKPGKAPKLLIYAASSLQSGVPSRFSGSGSGTDFTLTISSLQPEDFATYYCQQTWGGPQTFGQGTKVEIKR
